Reference: patent US10023484B2, “Use of peracetic acid/hydrogen peroxide and peroxide-reducing agents for treatment of drilling fluids, frac fluids, flowback water and disposal water” (Ecolab USA Inc., priority 2012, dated 2018)

Tests used:
[1] = test system: produced water samples (planktonic bacteria); assay: Planktonic kill study, ATP quantification assay; format: cell-based; details: PAA/H2O2 25 ppm
Experimental: Planktonic kill studies were performed as an evaluation of biocide efficiency for PAA/H2O2 and PAA/H2O2/Catalase applications. Briefly, produced water samples were used to test the kill efficiency of PAA/H2O2 at the following dosages: 25, 50, 75, 150 and 300 ppm PAA. Concentration of catalase was fixed at 1000 ppm. The contact time was set to 10 and 60 minutes. After contact time, bacterial enumeration was performed using ATP quantification assay. Bacterial enumeration was calculated at the end of the appropriate time and biocide efficacy determined by comparison to an untreated sample.

[2] = Hydrogen peroxide reduction by catalase in 2%, 3%, 5% peracid compositions, iodometric assay (Example 13); format: physicochemical
Experimental: The concentration of peracid compositions was evaluated to determine the peroxide-reducing capability of enzymes. A catalase enzyme was evaluated for efficacy in reducing hydrogen peroxide at varying concentrations under increasingly concentrated peracid compositions. The commercially-available peracid (POAA) composition EnviroSan (Ecolab, Inc., St. Paul, Minn.) was evaluated using catalase enzymes added to 2%, 3%, and 5% peracid compositions. The catalase enzymes were added to the POAA solution and gently stirred under ambient conditions. After the addition of catalase, the stirring was discontinued, and the samples were taken for iodometric assay.

[3] = Catalase (ES2000) amount needed in treated water source, iodometric titration (Example 15); format: physicochemical
Experimental: Field of use applications were analyzed to determine the amount of a peroxide-reducing enzyme necessary to obtain desired concentrations of both peracid and hydrogen peroxide in a treated water source. EnviroSan (POAA) peracid composition was added to water to reach the targeted POAA concentrations set forth in Table 18, and the concentration of both POAA and H2O2 were confirmed by iodometric titration. Then catalase (ES2000) was added to the solution, and the sample was stored under ambient conditions. The concentration of POAA and H2O2 were monitored by the iodometric conditions.

[4] = Field application of catalase (ES 2000) in pond water: room temperature, sunlight, shielded (Example 22); format: physicochemical
Experimental: A field of use application was analyzed to determine efficacy of the peroxide-reducing catalase enzyme in pond waters under ambient conditions. Catalase (ES 2000) was used in a pond water source (370000 barrel (bbl.)) to reduce/eliminate H2O2 in a POAA peracid composition. The pond water when sampled contained both POAA and H2O2. The treatments analyzed were based on established laboratory data, which at 1 ppm use level selectively eliminated H2O2 to zero within 4 hours. […] Therefore, 100 gram samples of the pond water were used to add various levels of either 1 ppm catalase (Table 33) or 2 ppm catalase (Table 34).
The samples were then stored at various conditions identified: ambient room temperature, outside under sunlight, outside shielded from sunlight. The level of hydrogen peroxide was assayed at various times (shown at 0 hours and 2 hours) to check the functionality of the catalase peroxide-reducing agent. As referred to in the Tables, the following measurements are set forth as follows: EP1 V (ml 0.05N Na2S2O3) and EP2 V (ml 0.05N Na2S2O3).

[5] = POAA and H2O2 loss with CoMo peroxide-reducing agent (Example 20); format: physicochemical; details: 10 g CoMo
Description: (§1) Various additional inorganic metals and metal compounds were further evaluated for use as peroxide decomposition catalysts (e.g. peroxide-reducing agents) according to the methods of the invention. The metals were provided as solid catalysts to POAA solutions.

[6] = POAA and H2O2 loss with NiW peroxide-reducing agent (Example 20); format: physicochemical; details: 10 g NiW
Description: as §1

[7] = POAA and H2O2 loss with NiMo peroxide-reducing agent (Example 20); format: physicochemical; details: 10 g NiMo
Description: as §1

[8] = POAA and H2O2 loss with Mo peroxide-reducing agent (Example 20); format: physicochemical; details: 10 g Mo
Description: as §1

[9] = 2% POAA, 1500 ppm Catalase, 0 min.
[10] = 2% POAA, 1500 ppm Catalase, 6.5 min.
[11] = 3% POAA, 1500 ppm Catalase, 0 min.
[12] = 3% POAA, 1500 ppm Catalase, 6.5 min.
[13] = 3% POAA, 1500 ppm Catalase, 10 min.
[14] = 3% POAA, 1500 ppm Catalase, 15 min.
[15] = 3% POAA, 2500 ppm Catalase, 0 min.
[16] = 3% POAA, 2500 ppm Catalase, 6.5 min.
[17] = 3% POAA, 2500 ppm Catalase, 10 min.
[18] = 3% POAA, 2500 ppm Catalase, 15 min.
[19] = 5% POAA, 1500 ppm Catalase, 0 min.
[20] = 5% POAA, 1500 ppm Catalase, 6.5 min.
[21] = 0.5 ppm catalase, series starting at 14.6 ppm POAA, 0 hr
[22] = 0.5 ppm catalase, series starting at 14.6 ppm POAA, 1 hr
[23] = 0.5 ppm catalase, series starting at 14.6 ppm POAA, 2 hr
[24] = 0.5 ppm catalase, series starting at 14.6 ppm POAA, 3.6 hr
[25] = 0.5 ppm catalase, series starting at 31.1 ppm POAA, 0 hr
[26] = 0.5 ppm catalase, series starting at 31.1 ppm POAA, 1 hr
[27] = 0.5 ppm catalase, series starting at 31.1 ppm POAA, 2 hr
[28] = 0.5 ppm catalase, series starting at 31.1 ppm POAA, 3.6 hr
[29] = 1.0 ppm catalase, series starting at 14.8 ppm POAA, 0 hr
[30] = 1.0 ppm catalase, series starting at 14.8 ppm POAA, 1 hr
[31] = 1.0 ppm catalase, series starting at 14.8 ppm POAA, 2 hr
[32] = 1.0 ppm catalase, series starting at 14.8 ppm POAA, 3.6 hr
[33] = 1.0 ppm catalase, series starting at 30.1 ppm POAA, 0 hr
[34] = 1.0 ppm catalase, series starting at 30.1 ppm POAA, 1 hr
[35] = 1.0 ppm catalase, series starting at 30.1 ppm POAA, 2 hr
[36] = 1.0 ppm catalase, series starting at 30.1 ppm POAA, 3.6 hr
[37] = 1 ppm catalase, Ambient Room, Time 0.00 hr
[38] = 1 ppm catalase, Ambient Room, Time 2.00 hr
[39] = 1 ppm catalase, Outside shield from the sunlight, Time 0.00 hr
[40] = 1 ppm catalase, Outside shield from the sunlight, Time 2.00 hr
[41] = 1 ppm catalase, Outside under the sunlight, Time 0.00 hr
[42] = 1 ppm catalase, Outside under the sunlight, Time 2.00 hr
[43] = 2 ppm catalase, Ambient Room, Time 0.00 hr
[44] = 2 ppm catalase, Ambient Room, Time 2.00 hr
[45] = 2 ppm catalase, Outside shield from the sunlight, Time 0.00 hr
[46] = 2 ppm catalase, Outside shield from the sunlight, Time 2.00 hr
[47] = 2 ppm catalase, Outside under the sunlight, Time 0.00 hr
[48] = 2 ppm catalase, Outside under the sunlight, Time 2.00 hr

Catalase
increase of biocide efficiency by addition of 1000 ppm catalase ([1]; after 10 minutes): 48%
increase of biocide efficiency by addition of 1000 ppm catalase ([1]; after 60 minutes): 23%
H2O2 [2, 9]: 1.36% H2O2
POAA [2, 9]: 2.0% POAA
H2O2 [2, 10]: 0.08% H2O2
POAA [2, 10]: 2.05% POAA
H2O2 [2, 11]: 2.04% H2O2
POAA [2, 11]: 3.0% POAA
H2O2 [2, 12]: 0.33% H2O2
POAA [2, 12]: 2.97% POAA
H2O2 [2, 13]: 0.23% H2O2
POAA [2, 13]: 2.83% POAA
H2O2 [2, 14]: 0.21% H2O2
POAA [2, 14]: 2.95% POAA
H2O2 [2, 15]: 2.04% H2O2
POAA [2, 15]: 2.0% POAA
H2O2 [2, 16]: 0.33% H2O2
POAA [2, 16]: 2.99% POAA
H2O2 [2, 17]: 0.23% H2O2
POAA [2, 17]: 2.95% POAA
H2O2 [2, 18]: 0.21% H2O3
POAA [2, 18]: 2.87% POAA
H2O2 [2, 19]: 3.40% H2O2
POAA [2, 19]: 5.0% POAA
H2O2 [2, 20]: 3.81% H2O2
POAA [2, 20]: 4.96% POAA
H2O2 (ppm) [3, 21]: 12.0 ppm
POAA (ppm) [3, 21]: 14.6 ppm
H2O2 (ppm) [3, 22]: 7.5 ppm
POAA (ppm) [3, 22]: 15.0 ppm
H2O2 (ppm) [3, 23]: 6.5 ppm
POAA (ppm) [3, 23]: 14.3 ppm
H2O2 (ppm) [3, 24]: 1.8 ppm
POAA (ppm) [3, 24]: 14.2 ppm
H2O2 (ppm) [3, 25]: 22.8 ppm
POAA (ppm) [3, 25]: 31.1 ppm
H2O2 (ppm) [3, 26]: 12.2 ppm
POAA (ppm) [3, 26]: 32.0 ppm
H2O2 (ppm) [3, 27]: 7.8 ppm
POAA (ppm) [3, 27]: 29.2 ppm
H2O2 (ppm) [3, 28]: 3.4 ppm
POAA (ppm) [3, 28]: 30.6 ppm
H2O2 (ppm) [3, 29]: 12.6 ppm
POAA (ppm) [3, 29]: 14.8 ppm
H2O2 (ppm) [3, 30]: 3.7 ppm
POAA (ppm) [3, 30]: 14.6 ppm
H2O2 (ppm) [3, 31]: 1.1 ppm
POAA (ppm) [3, 31]: 14.2 ppm
H2O2 (ppm) [3, 32]: 0.4 ppm
POAA (ppm) [3, 32]: 15.9 ppm
H2O2 (ppm) [3, 33]: 23.3 ppm
POAA (ppm) [3, 33]: 30.1 ppm
H2O2 (ppm) [3, 34]: 7.6 ppm
POAA (ppm) [3, 34]: 31.0 ppm
H2O2 (ppm) [3, 35]: 2.3 ppm
POAA (ppm) [3, 35]: 29.6 ppm
H2O2 (ppm) [3, 36]: 0.0 ppm
POAA (ppm) [3, 36]: 29.3 ppm
H2O2 [4, 37]: 6.8 ppm
POAA [4, 37]: 5.7 ppm
H2O2 [4, 38]: 1.3 ppm
POAA [4, 38]: 5.7 ppm
H2O2 [4, 39]: 6.8 ppm
POAA [4, 39]: 5.7 ppm
H2O2 [4, 40]: 0.9 ppm
POAA [4, 40]: 5.7 ppm
H2O2 [4, 41]: 6.8 ppm
POAA [4, 41]: 5.7 ppm
H2O2 [4, 42]: 6.8 ppm
POAA [4, 42]: 4.75 ppm
H2O2 [4, 43]: 6.8 ppm
POAA [4, 43]: 5.7 ppm
H2O2 [4, 44]: 0.0 ppm
POAA [4, 44]: 5.7 ppm
H2O2 [4, 45]: 6.8 ppm
POAA [4, 45]: 5.7 ppm
H2O2 [4, 46]: 0.0 ppm
POAA [4, 46]: 5.7 ppm
H2O2 [4, 47]: 6.8 ppm
POAA [4, 47]: 5.7 ppm
H2O2 [4, 48]: 4.3 ppm
POAA [4, 48]: 4.75 ppm

OO [H2O2]
H2O2 Concentration ([5]; Time 0): 1615
H2O2 Concentration ([5]; Time 15): 1343
H2O2 Concentration ([5]; Time 30): 1156
H2O2 Concentration ([5]; Time 45): 994.5
H2O2 Concentration ([5]; Time 60): 841.5
H2O2 Concentration ([6]; Time 0): 1615
H2O2 Concentration ([6]; Time 15): 1581
H2O2 Concentration ([6]; Time 30): 1598
H2O2 Concentration ([6]; Time 45): 1615
H2O2 Concentration ([6]; Time 60): 1615
H2O2 Concentration ([7]; Time 0): 1615
H2O2 Concentration ([7]; Time 15): 1581
H2O2 Concentration ([7]; Time 30): 1555.5
H2O2 Concentration ([7]; Time 45): 1530
H2O2 Concentration ([7]; Time 60): 1496
H2O2 Concentration ([8]; Time 0): 1615
H2O2 Concentration ([8]; Time 15): 1334.5
H2O2 Concentration ([8]; Time 30): 1181.5
H2O2 Concentration ([8]; Time 45): 986
H2O2 Concentration ([8]; Time 60): 841.5
